Reference: the supplement of paper PMC7877785
± gives the uncertainty stated by the source.

Assay: self-splicing fitness, log relative to wild type (ln ratio); higher = more splicing; Tetrahymena group I intron in knt gene, E. coli kanamycin selection, DiMSum; sequences stand for … in CUCUCU…GGAGGGAAAAGUUAUCAGGCAUGCACCUGGUAGCUAGUCUUUAAACCAAUAGAUUGCAUCGGUUUAAAAGGCAAGACCGUCAAAUUGCGGGAAAGGGGUCAACAGCCGUUCAGUACCAAGUCUCAGGGGAAACUUUGAGAUGGCCUUGCAAAGGGUAUGGUAAUAAGCUGACGGACAUGGUCCUAACCACGCAGCCAAGUCCUAAGUCAACAGAUCUUCUGUUGAUAUGGAUGCAGUUCACAGACUAAAUGUCGGUCGGGGAAGAUGUAUUCUUCUCAUAAGAUAUAGUCGGACCUCUCCUUAAUGGGAGCUAGCGGAUGAAGUGAUGCAACACUGGAGCCGCUGGGAACUAAUUUGUAUGCGAAAGUAUAUUGAUUAGUUUUGGAGUACUCGUGGUCG
In short: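 Fitness was computed with DiMSum as the error-weighted combination of replicate fold changes, kanamycin versus none, each normalised to wild type. The library randomised all eight intron nucleotides of the P1ex region, with the intron placed in the knt kanamycin-resistance gene on pET-22b(+) in E. coli BL21(DE3). Six replicate transformations were grown overnight at 37°C or 30°C on LB agar with or without 25 μg/mL kanamycin, plus 100 μg/mL carbenicillin, 50 μM IPTG and 0.2% rhamnose. Pooled colonies were amplicon-sequenced on an Illumina HiSeq 2500.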

Sequence | self-splicing fitness (ln) (30 °C) | self-splicing fitness (ln) (37 °C)
ACGUAGCAAUAUUACGACAG | -2.56 ± 0.13 | -0.828 ± 0.13
ACGUAGCAAUAUUACGACUG | -1.78 ± 0.13 | -0.836 ± 0.15
ACGUAGCAAUAUUACGAUUC | -2.39 ± 0.11 | -2.41 ± 0.21
ACGUAGCAAUAUUACGCAGA | -3.08 ± 0.27 | -2.48 ± 0.18
ACGUAGCAAUAUUACGCCAC | -4.5 ± 0.39 | -2.54 ± 0.44
ACGUAGCAAUAUUACGCCCA | -0.614 ± 0.12 | -0.952 ± 0.14
ACGUAGCAAUAUUACGCCCU | -0.282 ± 0.11 | -0.245 ± 0.095
ACGUAGCAAUAUUACGCGGG | -2.32 ± 0.12 | -0.863 ± 0.11
ACGUAGCAAUAUUACGCUGA | -1.81 ± 0.089 | -0.483 ± 0.085
ACGUAGCAAUAUUACGCUGC | -3.09 ± 0.34 | -1.44 ± 0.38
ACGUAGCAAUAUUACGGCCA | 0.73 ± 0.19 | 0.143 ± 0.18
ACGUAGCAAUAUUACGGCGC | -1.11 ± 0.083 | -0.695 ± 0.098
ACGUAGCAAUAUUACGGCUU | 0.0669 ± 0.089 | 0.194 ± 0.11
ACGUAGCAAUAUUACGGUAC | -3.46 ± 0.18 | -2.57 ± 0.3
ACGUAGCAAUAUUACGGUCC | -1.64 ± 0.15 | -0.357 ± 0.15
ACGUAGCAAUAUUACGUAAC | -3.5 ± 0.37 | -2.46 ± 0.48
ACGUAGCAAUAUUACGUACA | -2.02 ± 0.25 | -0.998 ± 0.22
ACGUAGCAAUAUUACGUAGU | -3.78 ± 0.23 | -1.26 ± 0.16
ACGUAGCAAUAUUACGUAUC | -3.45 ± 0.24 | -2.89 ± 0.26
ACGUAGCAAUAUUACGUGAA | -3.92 ± 0.23 | -1.82 ± 0.17
ACGUAGCAAUAUUACGUGAG | -3.75 ± 0.17 | -2.55 ± 0.14
ACGUAGCAAUAUUACGUGUA | -2.51 ± 0.14 | -2.2 ± 0.14
ACGUAGCAAUAUUACGUGUC | -3.68 ± 0.32 | -2.48 ± 0.37
ACGUAGCAAUAUUACGUUGA | -3.4 ± 0.29 | -2.78 ± 0.28

Sequence | self-splicing fitness (ln) (30 °C) | self-splicing fitness (ln) (37 °C)
ACGUAGCAAUAUUACGUUGG | -4.55 ± 0.31 | -2.85 ± 0.25
ACUAAGCAAUAUUACGAACG | -1.1 ± 0.1 | -0.438 ± 0.15
ACUAAGCAAUAUUACGAAUU | -2.52 ± 0.096 | -0.972 ± 0.089
ACUAAGCAAUAUUACGACCA | -0.124 ± 0.23 | 0.571 ± 0.2
ACUAAGCAAUAUUACGACGA | 0.0648 ± 0.13 | 0.181 ± 0.13
ACUAAGCAAUAUUACGAGGU | -3 ± 0.14 | -3.37 ± 0.25
ACUAAGCAAUAUUACGAUAA | -1.94 ± 0.17 | -0.57 ± 0.17
ACUAAGCAAUAUUACGAUAU | -1.39 ± 0.12 | -2.28 ± 0.16
ACUAAGCAAUAUUACGCAUG | -2.31 ± 0.091 | -0.766 ± 0.091
ACUAAGCAAUAUUACGCCAG | -0.955 ± 0.14 | -0.843 ± 0.2
ACUAAGCAAUAUUACGCCCC | -0.566 ± 0.13 | 0.127 ± 0.17
ACUAAGCAAUAUUACGGAAG | -2.59 ± 0.13 | -1.55 ± 0.15
ACUAAGCAAUAUUACGGACA | -0.625 ± 0.094 | -0.362 ± 0.12
ACUAAGCAAUAUUACGGGAC | -2.94 ± 0.14 | -0.635 ± 0.12
ACUAAGCAAUAUUACGGGGC | -4.09 ± 0.42 | -2.79 ± 0.24
ACUAAGCAAUAUUACGGGUC | -3.49 ± 0.34 | -0.75 ± 0.23
ACUAAGCAAUAUUACGUAGG | -1.4 ± 0.074 | -0.98 ± 0.1
ACUAAGCAAUAUUACGUCGG | -1.99 ± 0.068 | -1.04 ± 0.087
ACUAAGCAAUAUUACGUGUA | -2.6 ± 0.13 | -1.38 ± 0.12
ACUAAGCAAUAUUACGUUAU | -3.49 ± 0.13 | -1.55 ± 0.11
ACUAAGCAAUAUUACGUUGA | -2.67 ± 0.12 | -1.92 ± 0.13
ACUCAGCAAUAUUACGAGAA | -1.51 ± 0.21 | -0.586 ± 0.2
ACUCAGCAAUAUUACGAGGU | -3.47 ± 0.18 | -1.68 ± 0.17
ACUCAGCAAUAUUACGCAAA | -2.02 ± 0.12 | -0.838 ± 0.11

Sequence | self-splicing fitness (ln) (30 °C) | self-splicing fitness (ln) (37 °C)
ACUCAGCAAUAUUACGCAAC | -2.14 ± 0.17 | -2.43 ± 0.26
ACUCAGCAAUAUUACGCACG | -1 ± 0.078 | -0.784 ± 0.13
ACUCAGCAAUAUUACGGAUG | -1.36 ± 0.068 | -0.69 ± 0.098
ACUCAGCAAUAUUACGGCCG | -1.87 ± 0.13 | -0.609 ± 0.15
ACUCAGCAAUAUUACGGCGU | -0.555 ± 0.059 | 0.0604 ± 0.074
ACUCAGCAAUAUUACGGUAC | -2.63 ± 0.13 | -3.01 ± 0.21
ACUCAGCAAUAUUACGGUCG | -3.23 ± 0.12 | -1.33 ± 0.1
ACUCAGCAAUAUUACGUACG | -2.58 ± 0.14 | -0.864 ± 0.11
ACUCAGCAAUAUUACGUCUA | -0.845 ± 0.081 | -0.152 ± 0.076
ACUCAGCAAUAUUACGUCUG | -3.57 ± 0.14 | -2.74 ± 0.16
ACUGAGCAAUAUUACGAAGA | -2.33 ± 0.22 | -1.64 ± 0.2
ACUGAGCAAUAUUACGAAUA | -2.97 ± 0.28 | -2.65 ± 0.29
ACUGAGCAAUAUUACGAGCU |  | -1.02 ± 0.32
ACUGAGCAAUAUUACGCAAG | -2.68 ± 0.28 | -1.54 ± 0.19
ACUGAGCAAUAUUACGCACC | -2 ± 0.4 | -2.15 ± 0.42
ACUGAGCAAUAUUACGCCUG | -2.36 ± 0.19 | -1.48 ± 0.19
ACUGAGCAAUAUUACGCCUU | -1.55 ± 0.2 | -0.418 ± 0.24
ACUGAGCAAUAUUACGCGUG | -2.2 ± 0.092 | -1.05 ± 0.1
ACUGAGCAAUAUUACGCUAA | -3.41 ± 0.43 | -3.71 ± 0.39
ACUGAGCAAUAUUACGCUCG | -2.59 ± 0.24 | -1.59 ± 0.23
ACUGAGCAAUAUUACGGACU | -1.08 ± 0.077 | -0.672 ± 0.093
ACUGAGCAAUAUUACGGAGU | -2.8 ± 0.41 | -1.78 ± 0.33
ACUGAGCAAUAUUACGGCCC | -1.95 ± 0.3 | -0.993 ± 0.26
ACUGAGCAAUAUUACGGGCG | -2.3 ± 0.15 | -1.01 ± 0.18

Sequence | self-splicing fitness (ln) (30 °C) | self-splicing fitness (ln) (37 °C)
ACUGAGCAAUAUUACGGUCG | -3.49 ± 0.16 | -1.46 ± 0.16
ACUGAGCAAUAUUACGGUGA | -2.02 ± 0.13 | -3.65 ± 0.24
ACUGAGCAAUAUUACGUACA | -1.96 ± 0.24 | -0.524 ± 0.17
ACUGAGCAAUAUUACGUCCU | -2.07 ± 0.11 | -0.865 ± 0.12
ACUGAGCAAUAUUACGUCGC | -3.35 ± 0.26 | -2.18 ± 0.21
ACUGAGCAAUAUUACGUGAC | -3.23 ± 0.2 | -2.95 ± 0.27
ACUGAGCAAUAUUACGUUAG | -3.64 ± 0.2 | -0.75 ± 0.19
ACUGAGCAAUAUUACGUUGC |  | -2.04 ± 0.28
ACUUAGCAAUAUUACGAACC | -0.695 ± 0.21 | -0.285 ± 0.36
ACUUAGCAAUAUUACGAACG | -1.16 ± 0.089 | -0.581 ± 0.1
ACUUAGCAAUAUUACGAACU | -0.706 ± 0.12 | -0.193 ± 0.14
ACUUAGCAAUAUUACGAAUU | -2.29 ± 0.1 | -0.888 ± 0.14
ACUUAGCAAUAUUACGAGCG | -1.14 ± 0.096 | 0.122 ± 0.1
ACUUAGCAAUAUUACGAUAC | -3.82 ± 0.42 | -2.28 ± 0.26
ACUUAGCAAUAUUACGAUGC | -1.04 ± 0.091 | -0.644 ± 0.11
ACUUAGCAAUAUUACGAUGU | -1.78 ± 0.08 | -1.36 ± 0.11
ACUUAGCAAUAUUACGAUUC | -2.3 ± 0.098 | -0.823 ± 0.1
ACUUAGCAAUAUUACGCAAC | -2.89 ± 0.19 | -1.72 ± 0.17
ACUUAGCAAUAUUACGCGGG | -3.38 ± 0.27 | -2.75 ± 0.2
ACUUAGCAAUAUUACGCUCC | -1.44 ± 0.22 | 0.041 ± 0.19
ACUUAGCAAUAUUACGCUUG | -1.7 ± 0.094 | -0.865 ± 0.12
ACUUAGCAAUAUUACGGAUU | -1.18 ± 0.12 | -0.862 ± 0.14
ACUUAGCAAUAUUACGGCAG | -1.6 ± 0.092 | -0.759 ± 0.12
